T1: Recombinant human CD5 extracellular domain (CD5-ECD) (human, UniProt P06127 25-372)
T1 construct: In-house protein made as CD5-ECD - TEV site - hGH fusion; CD5-ECD isolated by TEV cleavage and nickel column; also called CD5-ECD protein
T1 sequence: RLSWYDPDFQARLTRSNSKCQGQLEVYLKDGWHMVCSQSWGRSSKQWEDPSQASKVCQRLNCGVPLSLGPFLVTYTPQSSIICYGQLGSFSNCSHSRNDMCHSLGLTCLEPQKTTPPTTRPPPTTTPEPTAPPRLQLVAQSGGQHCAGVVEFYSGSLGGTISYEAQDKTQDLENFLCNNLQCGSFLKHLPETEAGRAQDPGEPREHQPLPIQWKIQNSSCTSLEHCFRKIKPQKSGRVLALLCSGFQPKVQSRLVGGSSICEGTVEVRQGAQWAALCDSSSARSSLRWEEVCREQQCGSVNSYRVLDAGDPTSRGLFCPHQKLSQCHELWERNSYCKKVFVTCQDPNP

B1: Anti-CD5 antibody 9 (6M4) (antibody, human IgG1, V domains shown)
VH: QVQLKESGPELEKPGASVKISCKASGYSFTAYSMNWVKQNNGMSLEWIGSIDPYYGDTKYAQKFKGKATLTVDKASSTAYLQLKSLTSEDSAVYYCARRMITTGDWYFDV
VL: HIVLTQSPSSLSASLGDRVTISCRASQDISTYLNWYQQKPDGTVKLLIFYTSRLHAGVPSRFSGSGSGTHHSLTISNLEQEDIATYFCQQGNSLPFT
notes: also called Ab9; Clone 9
B2: Anti-CD5 antibody 17 (7H7) (antibody, human IgG1, V domains shown)
VH: EVQLVESGPGLVQPSQSLSITCTVSGFSLTNYDVHWVRQSPGKGLEWLGVIWNYGNTDYNAAFISRLSIRKDSSKSQVFFTMSSLQTPDTAIYYCARNHGDGYYNWYFDV
VL: NIVLTQSPSSLSESLGGKVTITCKASQDINKYIAWYQYKPGKGPRLLIHYTSTLQPGIPSRFSGSGSGRDYSFSISNLEPEDIATYYCLQYDNLWT
notes: also called Ab17; Clone 17
B3: Anti-CD5 antibody 14 (7P9) (antibody, human IgG1, V domains shown)
VH: EVQLKESGAELVKPGASVKLSCTASGFNIKDTYMHWVKQRPEQGLEWIGRIDPANGNTKYDPKFQGKATITADTSSNTAYLQLSSLTSEDTAVYYCAREENYYGTYYFDY
VL: NIVLTQSPASLAASVGETVTITCRASENIYYNLAWYQQKQGKSPQLLIYNANSLEDGVPSRFSGSGSGTQYSMKINSMQPEDTATYFCKQVYDVPFT
notes: also called Ab14; Clone 14
B4: Anti-CD5 antibody 29 (8E15) (antibody, human IgG1, V domains shown)
VH: QVQLKESGADLVKPGASVKLSCTASGFNIKDTYMNWVKERPEQGLEWIGRIDPANGNTKYDPKFQGKATITADTSSNTGYLQLSSLTSEDTAVYYCASYDPDY
VL: DIVLTQSPASLAASVGETVTITCRASENIYYNLAWYQQKQGKSPQLLIYNANSLEGGVPSRFSGSGSGTQYSMKINSMQPEDTATYFCKQAYDVPWT
notes: also called Ab29; Clone 29
B5: Anti-CD5 antibody 11 (4E24) (antibody, human IgG1, V domains shown)
VH: EVQLKESGAELVRPGGSVKISCKGSGYTFTNFAIHWVKQSHIKTLEWIGLISTSSGDVSYNQKFKDKATMTVDKSSSTAYMELARLTSEDSAIYYCARHYGANNYFDY
VL: EIVLTQSPTIMSASPGEQVTMTCRTNSSVSSSYLHWYQQKSGASPKLWIYGTSNLASGVPTRFSGSGSGTSYSLTISSVEAGDAATYFCQQYSGYPLT
notes: also called Ab11; Clone 11
B6: Anti-CD5 antibody 12 (4F10) (antibody, human IgG1, V domains shown)
VH: EVQLQESGAELVRPGVSVKISCKGSGYTFTNFAIHWVKQSHAKSLEWIGLISSNSGDVSYNQKFKGKATMTVDKSSSTAYMELARLTSEDSAIYYCARHYGAHNYFDY
VL: DIVLTQSPAIMSASPGEQVTMTCRATSSISSSYLHWYQQKSGASPKLWIYGTSNLASGVPTRFSGSGSGTSYSLTISSVEAEDAATYYCQQYSDYPLT
notes: also called Ab12; Clone 12
B7: Anti-CD5 antibody 15 (8E24) (antibody, human IgG1, V domains shown)
VH: QVTLKESGAELVRPGASVKLSCKASGYSFTSYWMNWVKQRPGQGLEWIGMIHPSDSETRLNQKFKDKATLTVDKSSSTAYMQLSSPTSEDSAVYYCARWGDHDDAMDF
VL: DIVLTQSPASLSASVGESVTITCRPSENIYGYFAWYQQRQGKSPQLLVYNAKTLAEGVPSRFSGSGSGTHFSLKINSLQPEDFGTYYCQHHYGTPFT
notes: also called Ab15; Clone 15
B8: Anti-CD5 antibody 34 (5O24) (antibody, human IgG1, V domains shown)
VH: EVKLVESGAELVRSGASVKLSCAASGFNIKDYYIHWVKQRPEQGLEWIGWIDPENGRTEYAPKFQGKATMTADTSSNTAYLQLSSLTSEDTAVYYCNNGNYVRHYYFDY
VL: DVVLTQSPAILSASPGEKVTMTCRAISSVSYMHWYQQKPGSSPKPWIYATSNLASGVPARFSGSGSGTSYSLTISRVEAEDAATYYCQQWSSNPRT
notes: also called Ab34; Clone 34
B9: Anti-CD5 antibody 18 (1E7) (antibody, human IgG1, V domains shown)
VH: QVQLKESGGGLVQPGGSLKLSCAASGFTFSNYGMSWVRQIPDKRLELVAAINSNGDITYDPDSVKGRFTISRDNANNSLFLQMRSLKSEDTAMYYCARGTAWFTYWGQGTLVT
VL: DIVLTQSPASLSASVGETVIITCRASENIYSYLVWYQQKQGKSPQLLVYNAKTLAEGVPSRFSGSGSGTQFSLKINSLQSEDFGSYSCQHHYGYPYT
notes: also called Ab18; Clone 18
B10: Anti-CD5 antibody 31 (3P16) (antibody, human IgG1, V domains shown)
VH: EVQLKESGPELKKPGETVKISCMTSGYMFTNHGMNWVKQAPGKGLKWMGWINTYTGEPTYGDGFKGRFVFSLETSASTAYLQINNLKNEDTATYFCARRVATYFDV
VL: NIVLTQSPAILSVSPGERVSFSCRASQRIGTSMNWYQQRTNGSPRLLIKSASESISGIPSRFSGSGSGTDFTLSINSVESDDVADYYCQQSNSWPLT
notes: also called Ab31; Clone 31
B11: Anti-CD5 antibody 32 (4F3) (antibody, human IgG1, V domains shown)
VH: EVKLVESGPELKKPGETVKISCKASGYMFTNYGMNWVKQAPGKGLKWMGWINTYTGEPTYVEDFKGRFAFSLETSANTAYLQINNLKNEDTATYFCTRRSHITLDY
VL: DIVLTQSPVILSVSPGERVSLSCRASQSIGTSINWYQQRTDGSPRLLIKSASESMSGIPSRFSGSGSGTDFTLSITSVESEDIADYYCQQSNSWPLT
notes: also called Ab32; Clone 32
B12: Anti-CD5 antibody 8 (8G8) (antibody, human IgG1, V domains shown)
VH: QVQLKESGPELEKPGASVRISCKASGYSFTAYNINWVTQRDGKSLEWIGSIDPYYGDTKYNQKFKDKATLTVDKSSSTAHMQVKSLTSEDSAIYYCARRMITMGDWYFDV
VL: EIVLTQSPSSLSASLGDRVTISCRASQDISNYLNWYQRKPDGTVKLLIYYTSRLQSGVPSRFSGSGSGSEYSLTISNLDQEDIATYFCQQGDALPWT
notes: also called Ab8; Clone 8
B13: Anti-CD5 antibody 23 (2H11) (antibody, V domains shown)
VH: EVQLQQSGPELVKPGTSVKISCKASGYTFTDYYINWVKQKPGQGLEWIGWIYPGGGNTRYIERFKGKATLTVDTSSSTAYMQLSSLTSEDTAVYFCARNGYWYFDV
VL: DIVLTQSPSSLTVTAGEKVTMSCKSSQSLLNQKNYLTWYQQKTGQPPKLLIYWASTRESGVPDRFTGSGSGTDFTLTISSVQAEDLAVYYCQNDYDYPYT
notes: also called Ab23; Clone 23
B14: Anti-CD5 antibody 1 (1D8) (antibody, human IgG1, V domains shown)
VH: EVQLQESGPELVKPEASVKISCKASGYSFTGYTMNWVKQSHGKNLEWIGLINPYNGGTTYNQKFKGKATLTVDTSSSTAFMELLSLTSEDSAVYYCARDYYGSSPDFDY
VL: DIVLTQSTSSLSASLGDRVTINCSASQGISNHLNWFQQKSDGTVKLLIYFTSSLHSGVPSRFSGSGSGTDYSLTISNLEPEDIAAYYCQQYSNLPYT
notes: also called Ab1; Clone 1

Molecular target: T1, Recombinant human CD5 extracellular …
Experiment: SPR (Biacore 2000), antibody captured by anti-human Fc, CD5-ECD in solution, 1:1 fit;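 also: CM5 chip, binding curves at four CD5-ECD concentrations fitted globally, with the signal of a non-CD5-binding control antibody subtracted as reference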
Experimental: SPR analysis was performed on a Biacore 2000 machine containing four flow cells. A CM5 Biacore chip was conjugated with 8.000 Resonance units (Ru) polyclonal anti-human IgG Fc-specific antibody to flow cells 1-4 according to the manufacturer's instructions. Each anti-CD5 antibody was determined for binding to four different concentrations of CD5-ECD (concentrations for the four cycles are shown below) before the affinity was calculated. The non-CD5 binding antibody, Erbitux served as a negative control and was subtracted from the values obtained with the anti-CD5 specific antibodies. […] Subsequently, all flow cells were washed and after waiting 500 s, 250 μl of CD5-ECD 100 nM or 200 nM (Cycle 1) was injected in Flow cells 1-4. After waiting 1000 s, 30 μl H3PO4 was injected using a flow rate of 60 μl/min. The antibody/antigen complex was then stripped with a low pH acid wash (30 sec. contact time with 100 mM H3PO4). […] Four new cycles were then repeated until all the anti-CD5 antibody clones were tested for binding to CD5 in four different concentrations. The association rate constant (ka) and dissociation constant (kd) were evaluated globally by fitting the four binding curves to predefined 1:1 (Langmuir) association and dissociation models with BIAevaluation 4.1 software (Biacore), Table 13.

Binder	Kd	koff	kon
B1	4.35 nM	6.17e-05 s⁻¹	14200 M⁻¹ s⁻¹
B2	0.164 nM	8.45e-05 s⁻¹	515000 M⁻¹ s⁻¹
B3	5.6 nM	0.0018 s⁻¹	321000 M⁻¹ s⁻¹
B4	2.09 nM	0.00137 s⁻¹	655000 M⁻¹ s⁻¹
B5	0.315 nM	2.2e-05 s⁻¹	69900 M⁻¹ s⁻¹
B6	1.18 nM	0.000115 s⁻¹	97000 M⁻¹ s⁻¹
B7	23.4 nM	0.00127 s⁻¹	54400 M⁻¹ s⁻¹
B8	61.3 nM	0.00084 s⁻¹	13700 M⁻¹ s⁻¹
B9	0.205 nM	3.27e-05 s⁻¹	160000 M⁻¹ s⁻¹
B10	8.85 nM	0.000803 s⁻¹	90700 M⁻¹ s⁻¹
B11	0.903 nM	0.000116 s⁻¹	128000 M⁻¹ s⁻¹
B12	0.37 nM	9.81e-06 s⁻¹	26500 M⁻¹ s⁻¹
B13	4.79 nM	0.000105 s⁻¹	21900 M⁻¹ s⁻¹
B14	5.19 nM	0.000557 s⁻¹	107000 M⁻¹ s⁻¹
